Assay results published in patent publication US20140322332A1 (GENUS ONCOLOGY, published 2014).
Positions of bridges follow the written chain, without caps; N, C: chain ends. Non-standard residues stand in square brackets, D forms with d.

What was measured:
[1] = biological target: T1, human MUC1 in human carcinoma cells (human, UniProt P15941 1097-1255); experiment: cell-based or functional assay
T1 sequence: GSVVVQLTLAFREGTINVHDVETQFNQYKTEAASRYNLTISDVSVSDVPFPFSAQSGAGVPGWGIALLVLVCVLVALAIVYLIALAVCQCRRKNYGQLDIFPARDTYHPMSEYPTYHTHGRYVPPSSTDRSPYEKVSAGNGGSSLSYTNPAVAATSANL

[2] = biological target: human MUC1 in human carcinoma cells (human) (UniProt P15941); experiment: cell-based or functional assay
[3] = biological target: dopamine D1 receptor (Homo sapiens (Human)) (UniProt P21728); experiment: receptor binding screen, inhibition of radioligand binding
Sequence of dopamine D1 receptor (Homo sapiens (Human)) (P21728 whole entry, form in doubt): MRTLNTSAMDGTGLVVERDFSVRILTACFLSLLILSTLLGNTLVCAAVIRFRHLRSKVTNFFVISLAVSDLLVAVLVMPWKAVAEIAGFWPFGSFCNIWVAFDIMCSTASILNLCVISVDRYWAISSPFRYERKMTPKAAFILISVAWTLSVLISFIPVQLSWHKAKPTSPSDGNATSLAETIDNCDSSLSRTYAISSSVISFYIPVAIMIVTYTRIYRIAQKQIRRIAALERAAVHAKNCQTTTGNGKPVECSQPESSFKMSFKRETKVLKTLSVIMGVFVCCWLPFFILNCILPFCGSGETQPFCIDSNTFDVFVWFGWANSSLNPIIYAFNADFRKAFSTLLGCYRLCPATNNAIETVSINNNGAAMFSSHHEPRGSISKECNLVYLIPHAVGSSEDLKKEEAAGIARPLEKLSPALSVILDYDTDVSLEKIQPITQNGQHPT

Molecule: GO-203 (peptide)
- % inhibition of proliferation, H1975 lung cancer cells, 5 µM peptide daily, viable cells by trypan blue [1]: 75.8%
- % inhibition of proliferation, ZR-75-1 breast cancer cells, 5 µM peptide daily, viable cells by trypan blue [1]: 44%

Molecule: Ac-[dR][dR][dR][dR][dR][dR][dR][dR][dR][dC][dQ][dC][dR][dR][dK][dN]-NH2 (cysteine pairing not given here) [GO-203-2]
- % Inhibition of cell viability, A549 NSCLC, 5 µM [2]: 75.4%
- % Inhibition of cell viability, H1975 NSCLC, 5 µM [2]: 52.9%
- % Inhibition of cell viability, MCF-7 breast carcinoma, 5 µM [2]: 91.4%
- % Inhibition of cell viability, ZR-75-1 breast carcinoma, 5 µM [2]: 50.7%
- % inhibition of proliferation, H1975 lung cancer cells, 5 µM peptide daily, viable cells by trypan blue [2]: 63.6%
- % inhibition of proliferation, ZR-75-1 breast cancer cells, 5 µM peptide daily, viable cells by trypan blue [2]: 65.5%
- IC50 of inhibition of proliferation of a variety of human carcinoma cell lines in vitro [2]: 2 to 5 µM

B1: GO-203-2c (peptide)
peptide: Ac-[dR][dR][dR][dR][dR][dR][dR][dR][dR][dC][dQ][dC][dR][dR][dK][dN]-NH2
modifications: disulfide 10-12
SMILES: CC(=O)N[C@H](CCCNC(=N)N)C(=O)N[C@H](CCCNC(=N)N)C(=O)N[C@H](CCCNC(=N)N)C(=O)N[C@H](CCCNC(=N)N)C(=O)N[C@H](CCCNC(=N)N)C(=O)N[C@H](CCCNC(=N)N)C(=O)N[C@H](CCCNC(=N)N)C(=O)N[C@H](CCCNC(=N)N)C(=O)N[C@H](CCCNC(=N)N)C(=O)N[C@@H]1CSSC[C@H](C(=O)N[C@H](CCCNC(=N)N)C(=O)N[C@H](CCCNC(=N)N)C(=O)N[C@H](CCCCN)C(=O)N[C@H](CC(N)=O)C(N)=O)NC(=O)[C@@H](CCC(N)=O)NC1=O
- IC50 of inhibition of proliferation of a variety of human carcinoma cell lines in vitro [1]: 2 to 5 µM
- IC50 [3]: 10.5 µM
